Reference: article PMC3212032
“And” between values parts separate entries of the source, which are not always exact repeats. Equal values may be shown once. Read-outs that look alike come from different tables or passages of the source.

Experiments:
[1] = target: wt Rous sarcoma virus integrase (286 residues) (Rous sarcoma virus); test: SEC
[2] = target: wt Rous sarcoma virus integrase (286 residues) (Rous sarcoma virus); test: SEC; remark: listed apart in the source
[3] = target: HIV-1 integrase F185K (pNY strain) (human immunodeficiency virus type-1 (pNY strain)); test: SEC
[4] = target: HIV-1 integrase F185K (pNY strain) (human immunodeficiency virus type-1 (pNY strain)); test: SEC; remark: listed apart in the source
[5] = target: wt HIV-1 integrase (pNY strain) (human immunodeficiency virus type-1 (pNY strain)); test: SEC
[6] = target: wt HIV-1 integrase (pNY strain) (human immunodeficiency virus type-1 (pNY strain)); test: cross-linking
[7] = target: wt HIV-1 integrase (pNY strain) (human immunodeficiency virus type-1 (pNY strain)); test: cross-linking; remark: listed apart in the source

Substance: wt Rous sarcoma virus integrase (286 residues) (enzyme)
- stoichiometry N [1]: 2 and 4
- stoichiometry N [2]: 2 and 4

Substance: HIV-1 integrase F185K (pNY strain) (enzyme)
- stoichiometry N [3]: 2
- percent converted to tetramers [4]: 65%
- stoichiometry N [4]: 2 and 4

Substance: wt HIV-1 integrase (pNY strain) (enzyme)
- stoichiometry N [5]: 4
- stoichiometry N [6]: 2
- stoichiometry N [7]: 2 and 3 and 4
